# Measurements from patent US20030104507A1, “Method for detection of ATP” (priority 2001, published 2003).
# Changes are numbered by the printed parent chain. Like-named read-outs stand apart in the source and are kept apart here.
# B1: LucPpe2m90: mutant luciferase derived from LucPpe2, SEQ ID NO:2 (protein)
# chain: MADKNILYGPEPFYPLEDGTAGEQMFDALSRYADIPGCIALTNAHTKENVLYEEFLKLSCRLAESFKKYGLKQNDTIAVCSENGLQFFLPVIASLYLGIIVAPVNDKYIERELIHSLGIVKPRIVFCSKNTFQKVLNVKSKLKSIETIIILDLNEDLGGYQCLNNFISQNSDSNLDVKKFKPYSFNRDDQVALIMFSSGTTGLPKGVMLTHKNIVARFSLAKDPTFGNAINPTTAILTVIPFHHGFGMMTTLGYFTCGFRVVLMHTFEEKLFLQSLQDYKVESTLLVPTLMAFLAKSALVEKYDLSHLKEIASGGAPLSKEIGEMVKKRFKLNFVRQGYGLTETTSAVLITPKGDAKPGSTGKIVPFHAVKVVDPTTGKILGPNEPGELYFKGPMIMKGYYNNEEATKAIIDNDGWLRSGDIAYYDNDGHFYIVDRLKSLIKYKGYQVAPAEIEGILLQHPYIVDAGVTGIPDEAAGELPAAGVVVQTGKYLNEQIVQDYVASQVSTAKWLRGGVKFLDEIPKGSTGKIDRKVLRQMFEKHTNG
# modifications: Mutant of LucPpe2 luciferase
# B2: LucPpe2m146: mutant luciferase derived from LucPpe2, SEQ ID NO:4 (protein)
# chain: B1 chain with D34A, G84S, L193S, L220I, T234S, F367L, F538L
# modifications: Mutant of LucPpe2 luciferase
# What was measured:
# [1] = molecular target: native firefly luciferase (Photinus pyralis, UniProt P08659); settings: cited from earlier work
# native firefly luciferase, sequence (P08659 whole entry): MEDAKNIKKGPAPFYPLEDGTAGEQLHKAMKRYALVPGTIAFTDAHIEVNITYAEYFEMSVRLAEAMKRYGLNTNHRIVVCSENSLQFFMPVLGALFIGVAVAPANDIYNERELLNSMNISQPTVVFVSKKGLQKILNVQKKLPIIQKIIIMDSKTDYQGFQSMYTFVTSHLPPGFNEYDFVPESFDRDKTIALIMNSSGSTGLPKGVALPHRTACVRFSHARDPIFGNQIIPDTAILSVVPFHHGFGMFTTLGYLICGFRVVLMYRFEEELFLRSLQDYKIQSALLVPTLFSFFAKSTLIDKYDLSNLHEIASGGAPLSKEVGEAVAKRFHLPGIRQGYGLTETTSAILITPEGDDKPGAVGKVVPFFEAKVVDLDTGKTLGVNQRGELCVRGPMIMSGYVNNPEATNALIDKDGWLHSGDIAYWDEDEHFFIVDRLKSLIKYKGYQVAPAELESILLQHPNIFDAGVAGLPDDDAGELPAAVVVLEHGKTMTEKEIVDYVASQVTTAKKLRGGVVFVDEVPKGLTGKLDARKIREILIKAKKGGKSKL
# LucPpe2m90 = format: biochemical, Photuris pennsylvanica; settings: for Half life: buffer; for Average rlu: 37° C.
# Description: (§1) The stability of a reagent composition composition comprising LucPpe2 luciferase was compared to a reagent composition comprising LucPpe2m90 and a reagent composition comprising LucPpe2m146, in the presence and absence of 0.1% DTAB. These mutant luciferases are thermostable; they are described in detail in PCT application PCT/US99/30925, filed Dec. 22, 1999.
# (§2) Each enzyme was diluted to 0.05 mg/ml to a final volume of 1.0 ml in either 25 mM HEPES, pH 8.0 or 20 mM citrate, pH 6.0; both with 100 mM NaCl, 1 mM EDTA, 0.1% gelatin and 5% glycerol. In half of the samples, 0.1% DTAB was added. The enzyme solutions (“reagent compositions”) were incubated at 37° C.
# (§3) At various timepoints, 10 μl of enzyme solution was transferred to a 96-well luminometer plate in triplicate. Then, in triplicate, 100 μl room temperature luciferase assay reagent (1 mM luciferin, 0.2 mM ATP, 10 MM MgSO4 in 50 mM HEPES, pH 8.0) was added to each 10 μl enzyme solution aliquot, mixed and immediately read in a Dynex MLX microtiter plate luminometer. The ATP in the luciferase assay reagent is at a saturating concentration. The average rlu values are reported, as are the half lives of the reagent composition activity as measured by luminescence (Table P). Half-life was calculated using the formula log (0.5)/slope of the data plotted as time (x axis) versus log value of rlu. The time zero is actually about 2-3 minutes after the mixing of enzyme and substrate; this could account for the lower numbers in the presence of DTAB at time 0 than in the absence of DTAB.
# LucPpe2m146 = format: biochemical, Photuris pennsylvanica; settings: for Half life: buffer; for Average rlu: 37° C.
# Description: as §1, §2, §3
molecule,measurement,setting,value
Cc1cc(C(C)(C)CC(C)(C)C)ccc1OCCOCC[N+](C)(C)Cc1ccccc1.[Cl-] [methylbenzethonium chloride],effect on native firefly luciferase,[1],inactivated
benzalkonium chloride,effect on native firefly luciferase,[1],inactivated
B1,Half life,LucPpe2m90; pH 6,8.508 h
same,Half life,LucPpe2m90; pH 8,8.125 h
same,Average rlu,"LucPpe2m90; pH 6.0 + 0.1% DTAB, 0 min",16263.53 rlu
same,Average rlu,"LucPpe2m90; pH 6.0 + 0.1% DTAB, 59 min",15535.4 rlu
same,Average rlu,"LucPpe2m90; pH 6.0 + 0.1% DTAB, 123 min",13421.5 rlu
same,Average rlu,"LucPpe2m90; pH 6.0 + 0.1% DTAB, 183 min",14061.8 rlu
same,Average rlu,"LucPpe2m90; pH 6.0 + 0.1% DTAB, 239 min",11924.03 rlu
same,Average rlu,"LucPpe2m90; pH 6.0, 0 min",20031.03 rlu
same,Average rlu,"LucPpe2m90; pH 6.0, 59 min",18453 rlu
same,Average rlu,"LucPpe2m90; pH 6.0, 123 min",15966.03 rlu
same,Average rlu,"LucPpe2m90; pH 6.0, 183 min",15546.4 rlu
same,Average rlu,"LucPpe2m90; pH 6.0, 239 min",14519.63 rlu
same,Average rlu,"LucPpe2m90; pH 8.0 + 0.1% DTAB, 0 min",22401.4 rlu
same,Average rlu,"LucPpe2m90; pH 8.0 + 0.1% DTAB, 59 min",15332.67 rlu
same,Average rlu,"LucPpe2m90; pH 8.0 + 0.1% DTAB, 123 min",12383.75 rlu
same,Average rlu,"LucPpe2m90; pH 8.0 + 0.1% DTAB, 183 min",11271.25 rlu
same,Average rlu,"LucPpe2m90; pH 8.0 + 0.1% DTAB, 239 min",9551.65 rlu
same,Average rlu,"LucPpe2m90; pH 8.0, 0 min",15795.17 rlu
same,Average rlu,"LucPpe2m90; pH 8.0, 59 min",15510.77 rlu
same,Average rlu,"LucPpe2m90; pH 8.0, 123 min",13735.67 rlu
same,Average rlu,"LucPpe2m90; pH 8.0, 183 min",13271.05 rlu
same,Average rlu,"LucPpe2m90; pH 8.0, 239 min",11115.13 rlu
B2,Half life,LucPpe2m146; pH 6,13.68 h
same,Half life,LucPpe2m146; pH 8,9.925 h
same,Average rlu,"LucPpe2m146; pH 6.0 + 0.1% DTAB, 0 min",5945.34 rlu
same,Average rlu,"LucPpe2m146; pH 6.0 + 0.1% DTAB, 61 min",5989.65 rlu
same,Average rlu,"LucPpe2m146; pH 6.0 + 0.1% DTAB, 125 min",3754.71 rlu
same,Average rlu,"LucPpe2m146; pH 6.0 + 0.1% DTAB, 183 min",4839.58 rlu
same,Average rlu,"LucPpe2m146; pH 6.0 + 0.1% DTAB, 237 min",4951.0 rlu
same,Average rlu,"LucPpe2m146; pH 6.0, 0 min",7685.01 rlu
same,Average rlu,"LucPpe2m146; pH 6.0, 61 min",7077.29 rlu
same,Average rlu,"LucPpe2m146; pH 6.0, 125 min",5507.01 rlu
same,Average rlu,"LucPpe2m146; pH 6.0, 183 min",6144.94 rlu
same,Average rlu,"LucPpe2m146; pH 6.0, 237 min",6471.76 rlu
same,Average rlu,"LucPpe2m146; pH 8.0 + 0.1% DTAB, 0 min",6445.57 rlu
same,Average rlu,"LucPpe2m146; pH 8.0 + 0.1% DTAB, 61 min",6214.56 rlu
same,Average rlu,"LucPpe2m146; pH 8.0 + 0.1% DTAB, 125 min",4018.92 rlu
same,Average rlu,"LucPpe2m146; pH 8.0 + 0.1% DTAB, 183 min",4020.56 rlu
same,Average rlu,"LucPpe2m146; pH 8.0 + 0.1% DTAB, 237 min",3734.59 rlu
same,Average rlu,"LucPpe2m146; pH 8.0, 0 min",6652.84 rlu
same,Average rlu,"LucPpe2m146; pH 8.0, 61 min",6577.91 rlu
same,Average rlu,"LucPpe2m146; pH 8.0, 125 min",5192.73 rlu
same,Average rlu,"LucPpe2m146; pH 8.0, 183 min",5476.86 rlu
same,Average rlu,"LucPpe2m146; pH 8.0, 237 min",5174.22 rlu
